B1: Atg1 EAT domain (K. lactis Atg1 residues 562-831) (domain or fragment, Kluyveromyces lactis, UniProt Q6CSX2 562-831, looked up)
chain: DSNITPAVESLAAKAFVMYSFAEMKFSQILPTPPSSTDYDPLSDKRLSNGSCAIEDEEDLDQGRPPSNQTLTSATTKISSATNVDTQIPAPELKKLCTESLLLYLKALTILAASMKLTSKWWYENESKNCTLKLNILVQWIRDRFNECLDKAEFLRLKLHAINTSPNSQWSDDDPVIFVEKLIYDRALDISRNAARMEMESGNYNTCELAYATSLWMLEILLDENFQFNEVYDDEYASNITSLDESDKEMIKKYISSIANRLKALKSKMV
B2: Atg17 (K. lactis) (natural protein, Kluyveromyces lactis, UniProt Q6CS99 1-423, looked up)
chain: MSDAATTIPSDEIDKLWNKARNQLVEAQVECEESLKILSKVRTEMDSSQKSRFKLKFILNCLVNQVEFFKNIMLEKCISTELIDNEWSKLVLVEIVNDVSYWQNEITTKMKILQGTKYDLTDDHSSLSDFICMDHVDILQQKIDEIPIIKQQVTNIRQHYKSIKDRIENQLVAVKLKKLRTYFDSHFSRDSKNNLFKLLESDYVTELNEFENELADFLRSITDHFDKCTILKEQQIPLPDLKELFQIVKKDDTQLENIRELVFETGLEVKAFSKKVNETISEIMDKIGGFHLLASKIVTELEKCEEYLSIFQKIANLVFVYKESCIKKIEQVQQLCEFYDKFKLGYKNLLRERDRRKATALQMEKILKECQEKLQALSDADLDQRQQFLLENGDYLPENIWPGYIDDMESMYSFEYSIHNVPN
B3: Atg13 residues 350-525 (K. lactis) (domain or fragment, Kluyveromyces lactis, UniProt Q6CWK2 350-525, looked up)
chain: AALKVQRGSAGSTIVNGDVPPELSSVGSGSKYSSSFGRIRRHSSIRRSESFDRTAKPRKSTENPPEDLLEFVKLLEDKKELNMKPNTILPQQDISNSLMRFQSMKSNNDALSDNLSMSMSIDQPNVRFGSNSHSPIPSFSPNYGSIPSRLSQGSRNNSNAELITSRKSSLDRHKHN

What was measured:
Assay in all cases: SAXS
[1] = molecular target: Atg1 minipentamer: Atg1EAT-Atg13_(350-525)-Atg17-Atg31-Atg29_(1-85) (K. lactis) (Kluyveromyces lactis) (UniProt Q6CSX2)
[2] = molecular target: Atg17-Atg31-Atg29_(1-85) subcomplex from Kluyveromyces lactis (dimeric double crescent) (Kluyveromyces lactis) (UniProt Q6CS99)
[3] = molecular target: the molecule itself
[4] = molecular target: the molecule itself; remark: listed apart in the source
[5] = molecular target: B2

Atg1 minipentamer: Atg1EAT-Atg13_(350-525)-Atg17-Atg31-Atg29_(1-85) (K. lactis) (from UniProt Q6CSX2 562-831; Q6CWK2 350-525; Q6CS99 1-423; Q6CTU8 1-85) (complex)
stoichiometry N [1]: 4

Atg17-Atg31-Atg29_(1-85) subcomplex from Kluyveromyces lactis (dimeric double crescent) (from UniProt Q6CS99 1-423; Q6CTU8 1-85)
stoichiometry N [2]: 4

B1
stoichiometry N [3]: 2

B2
binding result [4]: binds

B3
binding result [5]: binds

Source: publication PMC4426065 (Structure (London, England : 1993), 2015)
